Assay results: article PMC11806408 (2025)

Target: fibrillin‐1 fragment start‐EGF4 (UniProt P35555 45-287)
Test: SPR

Sequence of fibrillin‐1 fragment start‐EGF4 (P35555 45-287): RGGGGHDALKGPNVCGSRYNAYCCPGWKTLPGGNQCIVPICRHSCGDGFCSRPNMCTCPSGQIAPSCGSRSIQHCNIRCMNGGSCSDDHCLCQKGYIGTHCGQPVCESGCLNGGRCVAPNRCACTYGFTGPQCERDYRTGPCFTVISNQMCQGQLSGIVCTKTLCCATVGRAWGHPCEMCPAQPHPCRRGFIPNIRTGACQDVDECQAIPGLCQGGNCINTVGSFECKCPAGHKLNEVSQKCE

Kd: 14.4 nM
B1: processed BMP‐10 CPLX (tag‐free, HEK293) (complex)
chain 1: SPIMNLEQSPLEEDMSLFGDVFSEQDGVDFNTLLQSMKDEFLKTLNLSDIPTQDSAKVDPPEYMLELYNKFATDRTSMPSANIIRSFKNEDLFSQPVSFNGLRKYPLLFNVSIPHHEEVIMAELRLYTLVQRDRMIYDGVDRKITIFEVLESKGDNEGERNMLVLVSGEIYGTNSEWETFDVTDAIRRWQKSGSSTHQLEVHIESKHDEAEDASSGRLEIDTSAQNKHNPLLIVFSDDQSSDKERKEELNEMISHEQLPELDNLGLDSFSSGPGEEALLQMRSNIIYDSTARIRR
chain 2: NAKGNYCKRTPLYIDFKEIGWDSWIIAPPGYEAYECRGVCNYPLAEHLTPTKHAIIQALVHLKNSQKASKACCVPTKLEPISILYLDKGVVTYKFKYEGMAVSECGCR
modifications: N‐glycosylation
